Assay [1] has as its system DA-1 cells. Briefly: Proliferation assay on zsig37-coated plates, DA-1. It counts as cell-based, mouse. The following applies: 5,000 cells/well. On the procedure:
A second assay was performed with TF-1, DA-1, an IL-3 dependent cell line derived from the lymph node of a mouse with a B-cell lymphoma by outgrowth in IL-3 media, pre-B (p53−/− mouse marrow cells, IL-7 dependent, B220+, Thy1 low, Sca-1+), and A7BaF-3 cell lines as described above at 5,000 cells/well. BHK cells were also plated at 500 cells/well.

The subject of assay [2] is iliac artery crush injury/stenosis. In words: Rabbit iliac artery crush injury/stenosis model. The assay is classed as in vivo, New Zealand White rabbits. The procedure: The effect of zsig37 on blood flow dynamics following vascular injury in a rabbit iliac artery crush injury/stenosis model was also evaluated. Young adult male New Zealand White rabbits were anesthetized as described above. Via an abdominal incision, the aorto-iliac bifurcation was exposed and each iliac freed of surrounding tissues and the main branches ligated. Each iliac was fitted with an ultrasound flow probe to monitor blood flow through the vessel. Based on blood flow data, one iliac was selected to be used for the injury and the other was catheterized for delivery of the test sample. Rabbits were divided into dose groups of 6 animals/group. Test sample doses containing zsig37 increased in half-log increments from 3-1000 μg/kg over the selected infusion period. The test samples infusion was initiated followed by creation of a critical stenosis that reduced blood flow through the vessel by approximately 50%. After creation of the stenosis and a period of blood flow stabilization, the vessel was injured by crushing the vessel between the jaws of a smooth needle holder. The infusion was continued post-injury for a set period of time, 10-20 minutes. Blood flow through the injured vessel was monitored for 60 minutes post-injury. The animals were euthanized at he conclusion of the study period. […]

Assay [3] relates to classical pathway of human Complement serum. In words: Complement hemolysis assay, classical pathway (sheep erythrocytes). The assay is classed as biochemical. The procedure:
Complement assays were performed in 96 well round bottom plates. Gelatin Veronal buffer containing magnesium and calcium (141 mM NaCl, 1.8 mM sodium barbitol, 3.1 mM barbituric acid, 0.1% bovine gelatin, 0.5 mM MgCl2 and 0.15 mM CaCl2) was used for all serum and inhibitor dilutions as well as erythrocyte suspensions. Fifty microliters of standardized human Complement serum (Sigma Chemical Co.), diluted 1/37.5 (for a final dilution of 1/150) was added to each well. The inhibitor was added in triplicate, 50 μl/well. The serum and inhibitor were incubated for thirty minutes at room temperature. The assay was initiated by the addition of 100 μl of 2×10^8/ml unsensitized sheep erythrocytes (Colorado Serum Co.; Denver, Colo.), sensitized sheep erythrocytes, sensitized using the Hemolysin manufacturer's protocol (BioWhittaker Inc.; Walkersville, Md.) and rabbit erythrocytes containing 16 mM EGTA, and 4 mM Mg^++. A human serum dilution series from 1/50 to 1/400 was also plated as an activity control. Erythrocytes, lysed with distilled water and diluted to 100, 75, 50, 25, and 12.5 percent lysis, were used to quantify complement percent lysis. The plate was sealed and incubated at 37° C. for one hour with mixing every 15 minutes. […] The plate was read at 415 nm and percent lysis was calculated.

Assay [4] concerns atherosclerotic rabbit femoral/iliac artery crush injury. Briefly: Atherosclerotic Folts model, blood flow. The assay is classed as in vivo, New Zealand White rabbits. The following applies: 1 mg/kg bolus, n=8, vs 1 mg/kg BSA; p=0.0305. The source says: In the present experiment the standard Folts model was modified to study restenosis in rabbits. In this design, New Zealand White rabbits that normally are not prone to atherosclerosis were fed an atherogenic diet (e.g., 2% cholesterol and 6% coconut oil) for two weeks, underwent balloon denudation of an artery segment and then were continually fed the atherogenic diet. Within three weeks, atherosclerotic plaque had accumulated in the balloon-injured area. At this time, the animal was prepped for surgery and the atherosclerotic vessel was injured via a crush procedure and a Folts model study was performed.
Eleven male New Zealand White rabbits weighing 2.0-2.5 kg were used in this study. Atherosclerosis was developed in the right iliac and femoral arteries following a protocol described by Faxon et al., Am J. Cardiol., 1984, 53:72C-76C; and Faxon et al., Atherosclerosis. 1982, 2:125-133), with the following modifications. […]
Animals were administered 100 U/kg heparin. […] The flow rate was monitored and the vessel tapped to release the thrombus when the flow rate approached 0.7 ml/min. […] Blood flow through the injured vessel was monitored for 60 minutes post bolus infusion. […] Blood pressure was monitored throughout and, prior to termination, blood samples for coagulation factors were collected. […]
Statistical Analysis. All values are expressed as mean±SEM. […]

B1: zsig37: adipocyte complement related protein homolog, polypeptide of SEQ ID NO:2, inhibits collagen-mediated platelet activation and the complement pathway (protein, listed as Homo sapiens)
chain: MGSRGQGLLLAYCLLLAFASGLVLSRVPHVQGEQQEWEGTEELPSPPDHAERAEEQHEKYRPSQDQGLPASRCLRCCDPGTSMYPATAVPQINITILKGEKGDRGDRGLQGKYGKTGSAGARGHTGPKGQKGSMGAPGERCKSHYAAFSVGRKKPMHSNHYYQTVIFDTEFVNLYDHFNMFTGKFYCYVPGLYFFSLNVHTWNQKETYLHIMKNEEEVVILFAQVGDRSIMQSQSLMLELREQDQVWVRLYKGERENAIFSEELDTYITFSGYLVKHATEP
In the case of B1, the “growth of DA-1 cells” value in assay [1] is reported as “slightly inhibited growth”. Besides, the patency time entry in assay [2] (3-1000 μg/kg infusion, 60 minute period) is “tendency for zsig37 to promote increased patency time with increased dose up to 300 μg/kg”. Moreover, the thrombolytic activity result in assay [2] (study with zsig37 hexamer, flow starting from occlusion) is on record as “possesses thrombolytic activity”. Further, the “inhibition of classical pathway lysis” value in assay [3] (sensitized sheep erythrocytes) and in assay [3] (unsensitized sheep erythrocytes) was “effective in inhibiting the classical pathway” each time. For the same molecule, the “blood flow in final 30 minutes” value in assay [4] is recorded as “continuously patent”.

For the origin of these results see patent US20060252692A1, “Inhibitors for use in hemostasis” (ZymoGenetics, Inc., priority 2002, published 2006).
